Legend:
[1] = SDS-PAGE-Western blot of VLP Env; settings: glycan gained; control: Q23 SOS gp160ΔCT parent
[2] = pQC-Fluc PV neutralisation; settings: glycan gained; control: Q23 SOS gp160ΔCT parent

With Q23 Env: D49N the expression_or_secretion [1] was “increases” and the “other: neutralisation sensitivity” value [2] was “increases”.

For Q23 Env: D49N+D674N, the expression_or_secretion [1] was “no change” and the “other: neutralisation sensitivity” value [2] was “increases”.

For Q23 Env: D674N, the expression_or_secretion [1] was “decreases” and the “other: neutralisation sensitivity” value [2] was “increases”.

Reference: publication PMC8565784
